Results published in the RNAGym collection of RNA variant scans (doi:10.7554/elife.80360).

B1: Hairpin Ribozyme (parent)
chain: GUCCUCUUUCACGUGCGCGUGAAAGAGAGAAGUGAACCAGAGAAACACACGUUGUGGUAUAUUACCUGGUA

Variants of: B1
Experiment: self-cleavage, relative activity (ratio to wild type); higher = more cleavage; co-transcriptional
Variant GUCCUCUUUAACGUGCGCGUGAAAGAGAGAAGUGAACCAGAGAAACACACUUUGUGGUAUAUUACCUGGUA has a self-cleavage of 0.678.
GUCCUCUUUCACGUGCGCGUGAAAGAGAAAAGUGAACCAGAGAAAAACACGUUGUGGUAUAUUACCUGGUA gave a self-cleavage of 0.0992.
GUCCUCUUUCACGUGCGCGUCAAAGAGAGAAGUGAACCAGAGAAACACACGUUGUGGGAUAUUACCUGGUA gave a self-cleavage of 0.647.
With GUCCUAUUUCACGUGCCCGUGAAAGAGAGAAGUGAACCAGAGAAACACACGUUGUGGUAUAUUACCUGGUA the self-cleavage was 0.424.
GUCCUCUUUCACGUGCGCGUGAAAGAGAGACGUGAACCAGAGAAACACACGUUGUAGUAUAUUACCUGGUA showed a self-cleavage of 0.148.
GUCCUCUUUCACGUGCGCUUGAAAGAGAGAAGUGAACCAGAGAAACACACGUUGUGGUAUAUUAGCUGGUA showed a self-cleavage of 0.405.
With GUCCUCUUUCAAGUGCGCGUGAAAGAGAGAAGUGAACCAGAGAAACACACGUUGUGGUAGAUUACCUGGUA the self-cleavage was 0.459.
With GUCCUCUUUCACGUGCGCGUGAAAGAUAGAAGUGAACCGGAGAAACACACGUUGUGGUAUAUUACCUGGUA the self-cleavage was 0.149.
GUCCUCUUUCACGUGCGAGUGAAAGAGAAAAGUGAACCAGAGAAACACACGUUGUGGUAUAUUACCUGGUA gave a self-cleavage of 0.149.
For GUCCUCUUUCACGUGCGUGUGAGAGAGAGAAGUGAACCAGAGAAACACACGUUGUGGUAUAUUACCUGGUA, the self-cleavage was 0.857.
For GUCCUCUUUCACGUGCGCGUGAAGGAGAGAAGUGAACCAGAGAAACACACGUUGUGGUAUAUUACUUGGUA, the self-cleavage was 0.403.
With GUCCUCUUUCACGUGCGCGUGAAAGAGAGAAAUGAACCGGAGAAACACACGUUGUGGUAUAUUACCUGGUA the self-cleavage was 0.107.
GUCCUCUUUCACGUGCGCGUGAAAGAGAAAAGUGAACCAGAGAAACACACGUUGUGGUAUAUUACCUGGUA showed a self-cleavage of 0.126.
GUCCUCUUUCACGCGCGCGUGAAAGAGAGAAGUGAACCAGAGAAACACACGUUGUGGUAUAUUACCUUGUA gave a self-cleavage of 0.13.
For GUCCUCUUCCACGUGCGCGCGAAAGAGAGAAGUGAACCAGAGAAACACACGUUGUGGUAUAUUACCUGGUA, the self-cleavage was 0.885.
Variant GUCCUCUUUCACGUGCGCGUGAAAGAGAGAACUUAACCAGAGAAACACACGUUGUGGUAUAUUACCUGGUA has a self-cleavage of 0.163.
With GUCCUCUUUCACGAACGCGUGAAAGAGAGAAGUGAACCAGAGAAACACACGUUGUGGUAUAUUACCUGGUA the self-cleavage was 1.
In the case of GUCCUCUUUCACGUGCGCGUGAACGAGAGAAGUGAACCAGAGAAACAUACGUUGUGGUAUAUUACCUGGUA, the self-cleavage is reported as 0.216.
For GUCGUCUUUCACGUGCGCGUGAAAGAGAGAAGUGAACCAUAGAAACACACGUUGUGGUAUAUUACCUGGUA, the self-cleavage was 0.0761.
In the case of GUCCUCUUUCACGUGCGCGUGAAAGAGAGAAGUGAACCAGAGAAACACACGUUGUGGUAUAUUGCCAGGUA, the self-cleavage is reported as 0.0458.
Work on GUCCUCUUUCACGCGAGCGUGAAAGAGAGAAGUGAACCAGAGAAACACACGUUGUGGUAUAUUACCUGGUA yielded a self-cleavage of 0.922.
GUCCUCUUUCACGUGCGCGUGAAAGAGAGACGUGAACCAGAGAAACACACGUUGUGGUAGAUUACCUGGUA showed a self-cleavage of 0.194.
In the case of GUCCUCUUUCACGUGCGCGUGAAAGAGAGAAGUGAACCAGAGAAACACACGUUGUGGUAAAUUACCUUGUA, the self-cleavage is reported as 0.189.
For GUCCCCUUUCACGUGCGCGUGAAAGAGAGAAGUGAACCAGAGAAACACACCUUGUGGUAUAUUACCUGGUA, the self-cleavage was 0.732.
Work on GUCCUCUUUCACGUGCGCGUGAAAGAGAGUAGUGAACCAGAGAAACACACGUGGUGGUAUAUUACCUGGUA yielded a self-cleavage of 0.277.
Variant GUCCUCUUUCACGUGCGCGUGAAAGAGAGAAGUGUACCCGAGAAACACACGUUGUGGUAUAUUACCUGGUA has a self-cleavage of 0.208.
With GUCCUCAUUCACGUGCGCGUGAAAGAGAGAAGUGAACGAGAGAAACACACGUUGUGGUAUAUUACCUGGUA the self-cleavage was 0.2.
GUCCUCUUUCACGUGCGCGUGAAAGAGGGAAGUGAACCAGAGAAACACACGUUGUGGUAUAUUACCUGGUC showed a self-cleavage of 1.26.
For GUCCUUUUUCACGUGCGCGUGAAAGAGAGAAGUGAACCAGAGAAACACACGUUGUGGUAUAUUACCUCGUA, the self-cleavage was 0.154.
In the case of GUCCUCUUUCACGUGCGCGUGAAAGAGAGAAGUGAACCAGCGAAACACACGUCGUGGUAUAUUACCUGGUA, the self-cleavage is reported as 0.822.
In the case of GUCCUCUUUCACGUGCGCGUGAAAGAGAGAAGUGAACCAGAGAAACCCAGGUUGUGGUAUAUUACCUGGUA, the self-cleavage is reported as 0.0249.
GUCCUCUUUCACGUGCGCGUGAAAGAGAGAACUGAACCAGAGGAACACACGUUGUGGUAUAUUACCUGGUA gave a self-cleavage of 0.0421.
With GUCCACUUUCACGUGCGCGUGAAAGAGAGAAGUGAACCAGAGAAACACACGUUGUGGUAUACUACCUGGUA the self-cleavage was 0.224.
In the case of GUCCUCUUUCACGUGCGCGUGAAAGAGAGAAGUGAACCAGAGAAACACCCGUUGUGGUAUAUUACAUGGUA, the self-cleavage is reported as 0.28.
Variant GUCCUCUUUCACGUGCGCGUGAAAGAAAGAAGUGAACCAGAGAAACACACGUUGUGUUAUAUUACCUGGUA has a self-cleavage of 0.157.
With GUCCUCUUUCACGUGCGCGUGAAAGAGAGAAGAGGACCAGAGAAACACACGUUGUGGUAUAUUACCUGGUA the self-cleavage was 0.17.
In the case of GUCCUCUUUCACGUGCGCGUGAAAGAGAGAACUGAACCAGAGAAACACAAGUUGUGGUAUAUUACCUGGUA, the self-cleavage is reported as 0.109.
UACCUCUUUCACGUGCGCGUGAAAGAGAGAAGUGAACCAGAGAAACACACGUUGUGGUAUAUUACCUGGUA showed a self-cleavage of 0.11.
For GUCCUCUUUCACGCGCGCGUGAUAGAGAGAAGUGAACCAGAGAAACACACGUUGUGGUAUAUUACCUGGUA, the self-cleavage was 1.09.
Work on GUCCUCUUUCACGUGCGCGUGAAAGAGAGAAGUGAACCAGAGUAACACACGUUGUGGUAUAUAACCUGGUA yielded a self-cleavage of 0.107.
GUCCUCUUUCACGUGCGCGUGAAAGAGAGAAGUGAACCAGAGAAACACACGUCGUGGUCUAUUACCUGGUA gave a self-cleavage of 0.217.
GUCCUCUUUCACGUGCGCGUGAAAGAGAGGAGUGAACCAGAGAAACACACGUUGUCGUAUAUUACCUGGUA gave a self-cleavage of 0.0815.
Variant GUCCUCUUUCACGUGCGCGCGAAAGAGAGAAGUGAACCAGAGAAACACUCGUUGUGGUAUAUUACCUGGUA has a self-cleavage of 0.148.
Work on GUCCUCUUUCACGUGCGGGUGAAAGAGAGAAGUGAACCAGAGAAACAGACGUUGUGGUAUAUUACCUGGUA yielded a self-cleavage of 0.138.
For GUCCUCUUUCACGUGCGCGUGAAAGAGAGAAGUGAACCAGAGAAACACAUGUUGUGGUAUAUCACCUGGUA, the self-cleavage was 0.217.
GUGCUCUUUCACGUGCGCGUGAAAGAGAGAAGUGAACCAGAGAAACACACGUUGUGGUAUAAUACCUGGUA showed a self-cleavage of 0.107.
GUCCUCUUUCACGUGCGCGUGAAAGAGAGAAGUGAACCAGAGCAACACACUUUGUGGUAUAUUACCUGGUA showed a self-cleavage of 0.0904.
Variant GGCCUCUUUCACGUGCGCGUGAAAGAGAGAAGUGAACCAGAGAAACACACGUGGUGGUAUAUUACCUGGUA has a self-cleavage of 0.267.
For GUCCUCUUACACGUGCGCGUGUAAGAGAGAAGUGAACCAGAGAAACACACGUUGUGGUAUAUUACCUGGUA, the self-cleavage was 0.907.
In the case of GUCCUCUUUCACGUGCGCGUGAAAGAGAGAAGUGAACCAGAGAAACACACGUUGUGGUGUUUUACCUGGUA, the self-cleavage is reported as 0.141.
GUCCUCUUUCACGUGCGCGUGAAAGAGAGAAGUGAACGAGAGAAACACACGUUGUGGUAUAUUACCCGGUA showed a self-cleavage of 0.119.
With GUCCUCUUUCACGUGCGCGUGAAAGAGAGAAGUGGACCAGAGAACCACACGUUGUGGUAUAUUACCUGGUA the self-cleavage was 0.106.
With GUCCUCUUUCACGUGCGCGUGAAAGAGAGAAGUGAACCAGAGAAACACACGUUGUGGUAUACUACCUGCUA the self-cleavage was 0.0631.
With GUCCUCGAUCACGUGCGCGUGAAAGAGAGAAGUGAACCAGAGAAACACACGUUGUGGUAUAUUACCUGGUA the self-cleavage was 0.942.
For GUCCUCUUUCACGUGAGCGUGAAAGAGAGAAGUGAACCAGAGAAACACACGUUGUGGUAUAUUACCUGGUG, the self-cleavage was 1.04.
With GUCCUCUUUCACGUGAGCGUGAAAGAGAGAAGUGAACCAGAGAAACACACGUUGUGGUAUAUUACCUGGUC the self-cleavage was 1.1.
Variant GUCCUCUUUCACGUGCGCGUGAAAGAGAGAAGUGAACCAGAGAAACAGACGUUGUGGUACAUUACCUGGUA has a self-cleavage of 0.0854.
GUCCUCUUUCACGUGCGCGUGAAAGAGAGAAGUAAACCAGAGAAACACACGUUGUGGUAUAUUACCUGGUG gave a self-cleavage of 1.41.
In the case of GUCCUCUUUCACGUGCGCGUGAAAGAGAGAAGUGAAUCAGAGAAACACACGUUGUGGUAUAUUACCUGGCA, the self-cleavage is reported as 0.603.
With GUCCUCUUUCACGUGCGCGUGAAAGAGAGAAGUGAACCAGAGAAACACAGGUUGUGGUAUAGUACCUGGUA the self-cleavage was 0.151.
For GUCCUCUUUCACGUGCGCGUGAAAUAGAGAAGUGAACCAGAGAAACCCACGUUGUGGUAUAUUACCUGGUA, the self-cleavage was 0.241.
GUCCUCUUUCACGUGCGCGUGAAAGAGAGAAGUGAACCAGAGAAACACACGAUGUGGUAUAUUCCCUGGUA showed a self-cleavage of 0.253.
GUCCUCUUUCACGUGCGCGUGAAAGAGAGACGUGAACCAGAGAAACACACGUUGUGGUAUAUUACCUGCUA gave a self-cleavage of 0.0986.
GUCCGCUUUCACGUGCGCGUGAAAGAGAGAAGUGAACCAGAGAAACACACGUGGUGGUAUAUUACCUGGUA gave a self-cleavage of 0.179.
GUCCUCUUUCACGUGCGCGUGAUAGAGAGAAGUGAACCAGAGAAACACACGUUGUGGUAUGUUACCUGGUA gave a self-cleavage of 0.125.
Variant GUCCUCUUUCACGUGCGCGAGAAAGAGAGAAGUGAAGCAGAGAAACACACGUUGUGGUAUAUUACCUGGUA has a self-cleavage of 0.375.
GUCCUCUUUCCCGUGCGCGUGAAAGAGAGAACUGAACCAGAGAAACACACGUUGUGGUAUAUUACCUGGUA showed a self-cleavage of 0.0648.
In the case of GUUCUCUUUCACGUGCGCGUGAAAGAGAGAAGUGAACCAGAGAAACACACGUUGUGGUAUAUUACGUGGUA, the self-cleavage is reported as 0.0901.
With GUCCUCUUUCACGUGCGCGUGAUAGAGAGAAGUGAACCAGAGAAACACACGUUGUGGUAUAUAACCUGGUA the self-cleavage was 0.142.
GUCCUCUUUCACGUGCGCGUGAAAGAGAGAAGUGAACGAGAGAAACACAGGUUGUGGUAUAUUACCUGGUA showed a self-cleavage of 0.0871.
With GUCCUCUUUCACGUGCGCGUGAAAGAGAUAAGUGAACCAGAGAAACACACGCUGUGGUAUAUUACCUGGUA the self-cleavage was 0.178.
In the case of GUCCUCUUUCACGUGUGCGUGAAAGAGAGAAGUUAACCAGAGAAACACACGUUGUGGUAUAUUACCUGGUA, the self-cleavage is reported as 0.885.
Variant GUCCUCUUUCACGUGCGCGUGAAAGAGAGAAGUGAACCAAAGAAAAACACGUUGUGGUAUAUUACCUGGUA has a self-cleavage of 0.184.
For GUCAUCUUUCACGUGCGCGUGAAAGCGAGAAGUGAACCAGAGAAACACACGUUGUGGUAUAUUACCUGGUA, the self-cleavage was 0.13.
With GUCCUCUUCCACGUGCGCGUGAAAGAGAGAAGUGAACCAGAGAAACACACGUUGUUGUAUAUUACCUGGUA the self-cleavage was 0.0494.
Variant GUCCUCUUUCACGUGCGCGUGAAAGAGAGAAGUGAACCAGAGAAACACACGUUGUGGUAGCUUACCUGGUA has a self-cleavage of 0.315.
